Test results: patent US20230068663A1 (University of Texas, published 2023)

Experiments:
[1] = biological target: T1, endogenous LILRB2 on human myeloid cells / primary monocytes (human, UniProt Q8N423 22-597); test: flow cytometry, CD14+CD16- monocytes, AF647-conjugated antibody
T1 construct: whole, on cells; also called cells expressing endogenous LILRB2
Protocol: FIG. 32. Binding of LILRB2 antibodies on CD14⁺CD16-monocytes isolated from human PBMC from healthy donors. Fifty thousand cells were incubated for 30 minutes at 4° C. with a dilution series (40-0.0006 μg/mL) of LILRB2 antibodies directly conjugated to AF647 in a final volume of 100 μL. Data shown is averaged geometric mean of fluorescence intensity from duplicate samples acquired in a flow cytometer (BD FACS Celesta) from one donor and is representative of 2 experiments with cells isolated from different donors.

[2] = biological target: T2, LILRB2 chimeric receptor on LILRB2 reporter cells (extracellular domain of LILRB2 fused with … (UniProt Q8N423 22-460)); test: cell-based or functional assay
[3] = biological target: T3, full length human LILRB2 stably expressed on HEK293 cells (human, UniProt Q8N423 22-597); test: competition flow cytometry, inhibition of SEMA4A-hFc-AF647 binding to HEK293_LILRB2 cells
T3 construct: whole, on cells; also called HEK293_LILRB2
Protocol: FIG. 34. […] Incubation was performed for 30 minutes at 4° C. Data shown is averaged geometric mean of fluorescence intensity ± standard error of the mean (s.e.m.) from duplicate samples acquired in a flow cytometer (BD FACS Celesta).

[4] = biological target: T4, LILRB2 (antigen in solution, Octet RED 96) (UniProt Q8N423 22-460, limits assumed); test: BLI (Octet RED 96), antibody on protein A biosensor, LILRB2 in solution
T4 construct: also called LILRB2 solution
Protocol: Affinity measurement of blocking antibodies. Affinities of the 5 blocking antibodies were measured on Octet RED 96 system.

[5] = biological target: T5, LILRB1; test: flow cytometry, reporter cells
T5 construct: also called LILRB1 reporter cells; not shown: transmembrane/intracellular domains of PILRb, the display part of the chimeric reporter receptor
Protocol: (§1) FIG. 29. Binding of LILRB2 antibodies on reporter cell line expressing ectodomain of LILR family proteins on cell surface. Bound antibodies were detected with anti-human Fc-specific secondary antibody (2nd Ab) conjugated to AF647. […] All incubations were performed for 30 minutes at 4° C. Data shown is mean fluorescence intensity after sample acquisition in flow cytometer.

[6] = biological target: T6, LILRA4; test: flow cytometry, reporter cells
T6 construct: also called LILRA4 reporter cells
Protocol: as §1

[7] = biological target: T2, LILRB2 chimeric receptor on LILRB2 …; test: flow cytometry, reporter cells
Protocol: as §1

[8] = biological target: T7, LILRA2; test: flow cytometry, reporter cells
T7 construct: also called LILRA2 reporter cells; not shown: transmembrane/intracellular domains of PILRb, the display part of the chimeric reporter receptor
Protocol: as §1

[9] = biological target: T8, LILRA3; test: flow cytometry, reporter cells
T8 construct: also called LILRA3 reporter cells; not shown: transmembrane/intracellular domains of PILRb, the display part of the chimeric reporter receptor
Protocol: as §1

[10] = biological target: T9, LILRB4; test: flow cytometry, reporter cells
T9 construct: also called LILRB4 reporter cells; not shown: transmembrane/intracellular domains of PILRb, the display part of the chimeric reporter receptor
Protocol: as §1

[11] = biological target: T10, LILRA6; test: flow cytometry, reporter cells
T10 construct: also called LILRA6 reporter cells
Protocol: as §1

[12] = biological target: T11, LILRA1 on reporter cells (extracellular domain) (UniProt O75019 17-461, limits assumed); test: flow cytometry, reporter cells
T11 construct: extracellular domain
Protocol: as §1

[13] = biological target: T12, LILRA5; test: flow cytometry, reporter cells
T12 construct: also called LILRA5 reporter cells
Protocol: as §1

[14] = biological target: T13, LILRB3; test: flow cytometry, reporter cells
T13 construct: also called LILRB3 reporter cells; not shown: transmembrane/intracellular domains of PILRb, the display part of the chimeric reporter receptor
Protocol: as §1

[15] = biological target: T14, LILRB5; test: flow cytometry, reporter cells
T14 construct: also called LILRB5 reporter cells; not shown: transmembrane/intracellular domains of PILRb, the display part of the chimeric reporter receptor
Protocol: as §1

[16] = biological target: T15, LILRB2-His antigen (UniProt Q8N423 22-460, limits assumed); test: indirect ELISA, coated LILRB2-His
T15 construct: Coated on ELISA plates; also used for phage panning; also called LILRB2 antigen; not shown: His tag
Protocol: ELISA binding EC of LILRB2 antibodies. The ELISA binding EC₅₀ of these 24 antibodies were measured by indirect ELISA. […] After incubation, HRP-conjugated goat anti-human Fc secondary antibody was incubated with the plates. The TMB substrate was added for color development and measurement of absorbance at 450 nm.

[17] = biological target: T3, full length human LILRB2 stably …; test: flow cytometry, HEK293 cells expressing full length human LILRB2
Protocol: FIG. 31. Binding of LILRB2 antibodies on HEK293 stably expressing full length human LILRB2. Fifty thousand cells were incubated with a dilution series (40-0.0006 μg/mL) of LILRB2 antibodies in a final volume of 100 μL. Bound antibodies were detected with anti-human Fc-specific secondary antibody conjugated to AF647. All incubations were performed for 30 minutes at 4° C. Data shown is averaged geometric mean fluorescence intensity ± standard error of the mean (s.e.m.) after sample acquisition (in duplicates) in flow cytometer (BD FACS Celesta) and subtracted by background fluorescence of samples incubated with secondary antibody only.

T6 sequence (chain, as listed by the source limits assumed): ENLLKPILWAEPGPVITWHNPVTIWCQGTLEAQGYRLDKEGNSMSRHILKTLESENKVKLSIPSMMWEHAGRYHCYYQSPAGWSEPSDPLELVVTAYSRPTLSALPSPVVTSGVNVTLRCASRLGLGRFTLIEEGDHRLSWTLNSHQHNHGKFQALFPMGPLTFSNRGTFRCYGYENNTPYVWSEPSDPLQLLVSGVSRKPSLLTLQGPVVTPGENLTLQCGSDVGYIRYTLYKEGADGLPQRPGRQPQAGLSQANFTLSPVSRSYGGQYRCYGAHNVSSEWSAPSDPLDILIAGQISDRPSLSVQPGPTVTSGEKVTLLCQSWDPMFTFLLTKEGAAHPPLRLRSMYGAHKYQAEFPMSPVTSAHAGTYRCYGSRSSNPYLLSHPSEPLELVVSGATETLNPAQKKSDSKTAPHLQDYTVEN
T12 sequence (chain, as listed by the source limits assumed): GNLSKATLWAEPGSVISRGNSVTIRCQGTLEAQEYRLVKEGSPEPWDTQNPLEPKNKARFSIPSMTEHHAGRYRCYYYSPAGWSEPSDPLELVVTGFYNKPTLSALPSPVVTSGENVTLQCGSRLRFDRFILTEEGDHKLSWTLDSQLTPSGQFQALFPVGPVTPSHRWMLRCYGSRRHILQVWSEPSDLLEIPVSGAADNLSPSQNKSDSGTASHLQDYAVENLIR
T7 sequence (chain, as listed by the source limits assumed): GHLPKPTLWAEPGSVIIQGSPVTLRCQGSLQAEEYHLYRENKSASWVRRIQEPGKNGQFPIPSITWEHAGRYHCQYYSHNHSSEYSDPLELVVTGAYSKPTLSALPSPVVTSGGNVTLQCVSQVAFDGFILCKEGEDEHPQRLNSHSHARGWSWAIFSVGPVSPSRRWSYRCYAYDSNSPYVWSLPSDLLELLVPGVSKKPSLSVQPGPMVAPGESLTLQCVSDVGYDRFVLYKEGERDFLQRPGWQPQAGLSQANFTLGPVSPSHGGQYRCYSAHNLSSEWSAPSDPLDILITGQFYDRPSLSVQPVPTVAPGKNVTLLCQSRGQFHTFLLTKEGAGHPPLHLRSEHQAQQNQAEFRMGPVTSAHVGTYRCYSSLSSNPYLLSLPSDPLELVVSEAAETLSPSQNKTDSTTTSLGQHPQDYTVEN
T8 sequence (chain, as listed by the source limits assumed): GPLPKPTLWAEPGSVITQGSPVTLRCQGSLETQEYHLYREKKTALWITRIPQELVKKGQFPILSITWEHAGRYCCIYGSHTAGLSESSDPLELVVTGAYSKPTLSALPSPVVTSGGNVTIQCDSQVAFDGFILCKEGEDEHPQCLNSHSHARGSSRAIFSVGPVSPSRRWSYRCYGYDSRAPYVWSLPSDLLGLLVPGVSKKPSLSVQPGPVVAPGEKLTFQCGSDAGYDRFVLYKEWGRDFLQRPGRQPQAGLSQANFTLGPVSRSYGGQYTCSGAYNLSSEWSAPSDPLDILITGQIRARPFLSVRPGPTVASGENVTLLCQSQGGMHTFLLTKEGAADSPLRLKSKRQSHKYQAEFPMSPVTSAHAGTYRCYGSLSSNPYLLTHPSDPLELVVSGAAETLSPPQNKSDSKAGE
T5 sequence (chain, as listed by the source limits assumed): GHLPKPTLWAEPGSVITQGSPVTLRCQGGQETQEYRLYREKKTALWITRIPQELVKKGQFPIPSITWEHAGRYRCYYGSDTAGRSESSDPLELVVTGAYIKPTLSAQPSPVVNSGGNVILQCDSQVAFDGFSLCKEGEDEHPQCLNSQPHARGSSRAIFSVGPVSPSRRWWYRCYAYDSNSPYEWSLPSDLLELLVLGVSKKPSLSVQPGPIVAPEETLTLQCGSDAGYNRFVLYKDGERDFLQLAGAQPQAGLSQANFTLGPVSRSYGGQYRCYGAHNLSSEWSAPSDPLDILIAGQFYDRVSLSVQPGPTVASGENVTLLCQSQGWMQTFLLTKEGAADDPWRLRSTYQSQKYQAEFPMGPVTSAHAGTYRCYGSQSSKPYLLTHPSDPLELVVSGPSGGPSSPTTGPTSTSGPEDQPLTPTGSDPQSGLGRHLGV
T10 sequence (chain, as listed by the source limits assumed): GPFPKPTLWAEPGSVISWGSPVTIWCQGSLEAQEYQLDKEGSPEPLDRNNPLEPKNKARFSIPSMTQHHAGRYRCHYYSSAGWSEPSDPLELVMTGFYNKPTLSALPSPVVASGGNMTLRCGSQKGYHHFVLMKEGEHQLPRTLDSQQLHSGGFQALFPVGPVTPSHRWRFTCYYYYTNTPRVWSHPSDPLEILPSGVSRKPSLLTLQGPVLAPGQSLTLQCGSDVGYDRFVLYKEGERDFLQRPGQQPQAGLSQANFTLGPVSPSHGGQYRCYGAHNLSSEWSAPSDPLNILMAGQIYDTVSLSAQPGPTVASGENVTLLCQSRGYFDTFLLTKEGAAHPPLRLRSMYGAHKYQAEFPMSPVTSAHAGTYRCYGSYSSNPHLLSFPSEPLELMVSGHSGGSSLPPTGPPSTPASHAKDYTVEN
T14 sequence (chain, as listed by the source limits assumed): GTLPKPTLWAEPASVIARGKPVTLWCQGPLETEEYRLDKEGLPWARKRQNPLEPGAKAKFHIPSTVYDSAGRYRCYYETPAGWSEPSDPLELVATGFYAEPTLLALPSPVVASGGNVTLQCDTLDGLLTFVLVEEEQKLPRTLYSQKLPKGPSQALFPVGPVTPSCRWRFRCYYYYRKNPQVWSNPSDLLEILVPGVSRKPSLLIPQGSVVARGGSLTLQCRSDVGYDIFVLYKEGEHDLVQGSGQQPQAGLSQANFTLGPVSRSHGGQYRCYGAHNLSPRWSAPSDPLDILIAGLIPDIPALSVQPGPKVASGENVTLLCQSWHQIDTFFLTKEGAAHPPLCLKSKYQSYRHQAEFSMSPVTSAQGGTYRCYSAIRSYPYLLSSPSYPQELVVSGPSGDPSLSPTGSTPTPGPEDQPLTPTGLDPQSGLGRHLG
T11 sequence (O75019 17-461 limits assumed): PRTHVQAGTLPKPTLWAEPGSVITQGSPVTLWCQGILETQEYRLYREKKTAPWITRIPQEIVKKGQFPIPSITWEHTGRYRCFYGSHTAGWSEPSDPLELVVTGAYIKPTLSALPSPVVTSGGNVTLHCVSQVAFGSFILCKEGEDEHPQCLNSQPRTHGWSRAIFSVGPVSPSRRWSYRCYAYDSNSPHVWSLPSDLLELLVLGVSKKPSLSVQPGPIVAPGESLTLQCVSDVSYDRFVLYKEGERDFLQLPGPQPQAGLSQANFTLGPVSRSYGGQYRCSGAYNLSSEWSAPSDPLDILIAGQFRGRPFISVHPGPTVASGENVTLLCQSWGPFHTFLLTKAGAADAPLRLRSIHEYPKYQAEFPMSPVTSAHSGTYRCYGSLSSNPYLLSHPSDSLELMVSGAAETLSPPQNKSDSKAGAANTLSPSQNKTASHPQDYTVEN

EC50 [1]: > 10 µg/mL
Blocking potency (IC50) of GFP expression in LILRB2 reporter cells induced by coated ANGPTL2 [2]: 0.405 µg/mL
IC50 [3]: 0.657 µg/mL
Kd [4]: 35.9 nM
koff [4]: 0.0121 s⁻¹
kon [4]: 338000 M⁻¹ s⁻¹
MFI [5]: 9
binding result [5]: no binding
MFI [6]: 10
binding result [6]: no binding
MFI [7]: 1100
MFI [8]: 10
binding result [8]: no binding
MFI [9]: 10
binding result [9]: no binding
MFI [10]: 13
binding result [10]: no binding
MFI [11]: 11
binding result [11]: no binding
MFI [12]: 11
binding result [12]: no binding
MFI [13]: 10
binding result [13]: no binding
MFI [14]: 10
binding result [14]: no binding
MFI [15]: 10
binding result [15]: no binding
EC50 [16]: 24.6 nM
EC50 [17]: 0.105 µg/mL
B1: B2-17 (antibody, V domains shown)
VH: EVQLLDSGPRLLKPSETLSLTCGVSGVSTSSTHWWSWVRQTPGKGLEWIGEILHNGNTNSNPSLKSRVSMSIDKSRNQFSLQLKSMTAADTAVYYCASASPNWGASGAFDAWAQGTMVTVSS
VL: QSVLTQPPSASATPGQRVTISCSGSSSNIGSNPVNWYQQVPGMAPELVMYSDNQRPSGVPDRFSGSNSGTSASLAISGLQSEDEADYYCSTWDDSLNGLVFGTGTKVTVL
notes: also called B2-17_HC; B2-17_LC
